Measurements as given in US20130316376.

System: His6ZQGRep4CT

Protease 3C
Protease 3C cleavage of a Z-Rep4CT fiber (SDS-PAGE of the cleavage supernatant): the Protease 3C cleavage site is available for cleavage in Z-Rep4CT fibers and therefore, the HZ part can be removed
